T1: His-MIF (His-tag/T7 gene 10 leader/Xpress-MIF fusion) (UniProt P14174 P14174:1-115)
T1 chain: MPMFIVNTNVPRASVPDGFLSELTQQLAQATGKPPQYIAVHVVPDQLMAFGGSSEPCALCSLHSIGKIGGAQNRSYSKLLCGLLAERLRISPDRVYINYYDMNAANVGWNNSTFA

B1: X region SEQ 2324 (ssRNA)
RNA: GGGACGCUCACGUACGCUCAUGGUGUACUGUACCUAUUCGACACUUCUGUUGAUUAGUGAUCAGUGCCUGGACGUGCAGU
modifications: 3' A20 tail for capture
B2: X region SEQ 2314 (ssRNA)
RNA: GGGACGCUCACGUACGCUCAAACUUGAUCCUGGUUUCCAGCAGUAUGCCGCGUGAUUUCGUCAGUGCCUGGACGUGCAGU
modifications: 3' A20 tail for capture
B3: X region SEQ 2321 (ssRNA)
RNA: GGGACGCUCACGUACGCUCAGCACUGCUUACGGGGUCUCCGGCAGUAUGCCCUGGUGUAUUCAGUGCCUGGACGUGCAGU
modifications: 3' A20 tail for capture
B4: X region SEQ 2317 (ssRNA)
RNA: GGGACGCUCACGUACGCUCAGGUUGAUCCCGUUCUUCUUGACUGGCGCCUUCAUGGAGUGUCAGUGCCUGGACGUGCAGU
modifications: 3' A20 tail for capture
B5: X region SEQ 2318 (ssRNA)
RNA: GGGACGCUCACGUACGCUCAACUCCCUCUUUCGCGGGCUCCUUUCCGCAACACGACUGGCUCAGUGCCUGGACGUGCAGU
modifications: 3' A20 tail for capture
B6: X region SEQ 2325 (ssRNA)
RNA: GGGACGCUCACGUACGCUCAUACUUCCGGGUGUACUGUAAGCCCUACGCUGGAGGGGCUCUCAGUGCCUGGACGUGCAGU
modifications: 3' A20 tail for capture
B7: X region SEQ 2310 (ssRNA)
RNA: GGGACGCUCACGUACGCUCAUGGUGGAUUGGUGCAUCUAUGUCUUCUUACUUGUUAUCAGUGCCUGGACGUGCAGU
modifications: 3' A20 tail for capture
B8: X region SEQ 2315 (ssRNA)
RNA: GGGACGCUCACGUACGCUCAACCCGCGACUAGGUUUUCCUGGCGACCGUCCGGUAGUGUCAGUGCCUGGACGUGCAGU
modifications: 3' A20 tail for capture
B9: X region SEQ 2322 (ssRNA)
RNA: GGGACGCUCACGUACGCUCAGUUGGUUGCUGUGCAGUCUGGGUGUCUUGGCUUUCGGAUGUCAGUGCCUGGACGUGCAGU
modifications: 3' A20 tail for capture
B10: X region SEQ 2316 (ssRNA)
RNA: GGGACGCUCACGUACGCUCACAACUUGUAUUGUCCGGGUGUACUGUACCGAAACUCGUGAUCAGUGCCUGGACGUGCAGU
modifications: 3' A20 tail for capture
B11: X region SEQ 2326 (ssRNA)
RNA: GGGACGCUCACGUACGCUCAGGCUACUGGUCAGAGGUUUCCAGCAGAUUUCCUGCCUAAAUCAGUGCCUGGACGUGCAGU
modifications: 3' A20 tail for capture
B12: X region SEQ 2323 (ssRNA)
RNA: GGGACGCUCACGUACGCUCACUACAAUAAUAUUACCCCUUGUUUUCGUUUAGUCCGGGUUUCAGUGCCUGGACGUGCAGU
modifications: 3' A20 tail for capture
B13: X region SEQ 2311 (ssRNA)
RNA: GGGACGCUCACGUACGCUCAAGACGGUGUACUGGCACUUUUACUUCAUUGAGUAGAAAUUCGUCAGUGCCUGGACGUGCAGU
modifications: 3' A20 tail for capture
B14: X region SEQ 2320 (ssRNA)
RNA: GGGACGCUCACGUACGCUCAGACGUUCAAGUAAAUUGGCCCUAUAUUUCGUUAUAGUAUGUCAGUGCCUGGACGUGCAGU
modifications: 3' A20 tail for capture
B15: X region SEQ 2309 (ssRNA)
RNA: GGGACGCUCACGUACGCUCACUGGGCGACUAGGUGUACUGGCUAUCACGUUCUGGAUAAGUCAGUGCCUGGACGUGCAGU
modifications: 3' A20 tail for capture
B16: X region SEQ 2313 (ssRNA)
RNA: GGGACGCUCACGUACGCUCAGGUGUACUGUAACCUGCCUGCCACCUGCGGCUUCGCGGACUCAGUGCCUGGACGUGCAGU
modifications: 3' A20 tail for capture
B17: X region SEQ 2319 (ssRNA)
RNA: GGGACGCUCACGUACGCUCAAAAGUUUUGCACGUUCUCCCGGUGUCCUGGCGCUUGGCUGUCAGUGCCUGGACGUGCAGU
modifications: 3' A20 tail for capture

Biological target: T1, His-MIF (His-tag/T7 gene 10 …)
Test: SPR; data not shown
Settings: MIF 115 aa; ATGen

Binding result, binds:
B1
B2
B3
B4
B5
B6
B7
B8
B9
B10
B11
B12
B13
B14
B15
B16
B17

— patent US20120129720, “APTAMER THAT RECOGNIZES PEPTIDE” (KANAGAWA PREFECTURAL HOSPITAL ORGANIZATION, published 2012)
